For test [1], the target named is scFvWFL, single chain variant (scFv) of MEDI1912 (human). Description: cross-linking; scFv 15 µM in 100 mM sodium phosphate pH 7.4, d0/d4-BS3 (50:50) at 50x, 100x, 200x and 500x molar excess, 30 min at 25 °C; SDS-PAGE densitometry and LC-MS/MS of the dimer bands.
Test [2] deals with scFvSTT, scFv of MEDI1912 with W35S, F36T and L64T in VH (human). The description is as above.

B1: scFvWFL, single chain variant (scFv) of MEDI1912 (scFv, V domains shown)
VH: QVQLVQSGAEVKKPGSSVKVSCKASGGTFWFGAFTWVRQAPGQGLEWMGGIIPIFGLTNLAQNFQGRVTITADESTSTVYMELSSLRSEDTAVYYCARSSRIYDLNPSLTAYYDMDVWGQGTMVTVSS
VL: QSVLTQPPSVSAAPGQKVTISCSGSSSDIGNNYVSWYQQLPGTAPKLLIYDNNKRPSGIPDRFSGSKSGTSATLGITGLQTGDEADYYCGTWDSSLSAWVFGGGTKLTVL
As for B1, the percent incorporated into higher-order oligomers in test [1] came out at 45%.

B2: scFvSTT, scFv of MEDI1912 with W35S, F36T and L64T in VH (scFv, V domains shown)
VH: QVQLVQSGAEVKKPGSSVKVSCKASGGTFSTGAFTWVRQAPGQGLEWMGGIIPIFGTTNLAQNFQGRVTITADESTSTVYMELSSLRSEDTAVYYCARSSRIYDLNPSLTAYYDMDVWGQGTMVTVSS
VL: QSVLTQPPSVSAAPGQKVTISCSGSSSDIGNNYVSWYQQLPGTAPKLLIYDNNKRPSGIPDRFSGSKSGTSATLGITGLQTGDEADYYCGTWDSSLSAWVFGGGTKLTVL
As to B2, the percent remaining monomeric in test [2] came out at 99%.

The record behind these values is PMC7156504.
